Test results taken from article PMC8413462, “Eukaryotic Box C/D methylation machinery has two non-symmetric protein assembly sites”.
Positions count from the first letter of the chain named.

Assays:
Snu13 V93IR95V [1] = molecular target: T1, Snu13 V93IR95V (Saccharomyces cerevisiae, UniProt P39990 1-126, V93I;R95V); experiment: EMSA; EMSA: annealed in 10 mM Tris-HCl, 100 mM NaCl, 1 mM EDTA, pH 7.5; 4 C, 10% native PAGE; 10 pmol Cy5-RNA (~2 uM) or 0.5 nmol unlabeled RNA. RNP: 20 mM Na phosphate, 500 mM NaCl, pH 6.6; conditions: protein: recombinant, tags: N-terminal His6, TEV-cleaved, label: 5'-Cy5
T1 sequence: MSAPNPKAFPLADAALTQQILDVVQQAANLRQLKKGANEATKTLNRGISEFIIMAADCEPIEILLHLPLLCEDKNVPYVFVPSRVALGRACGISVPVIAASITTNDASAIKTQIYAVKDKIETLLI

L7Ae [2] = molecular target: T2, L7Ae (Pyrococcus furiosus, UniProt Q8U160 1-123); experiment: EMSA; similar to snR51-kl1; EMSA: annealed in 10 mM Tris-HCl, 100 mM NaCl, 1 mM EDTA, pH 7.5; 4 C, 10% native PAGE; 10 pmol Cy5-RNA (~2 uM) or 0.5 nmol unlabeled RNA. RNP: 20 mM Na phospha
L7Ae [3] = molecular target: T2, L7Ae; experiment: EMSA; EMSA: annealed in 10 mM Tris-HCl, 100 mM NaCl, 1 mM EDTA, pH 7.5; 4 C, 10% native PAGE; 10 pmol Cy5-RNA (~2 uM) or 0.5 nmol unlabeled RNA. RNP: 20 mM Na phospha
Snu13 R95VP96A [4] = molecular target: T3, Snu13 R95VP96A (Saccharomyces cerevisiae, UniProt P39990 1-126, R95V;P96A); experiment: EMSA; EMSA: annealed in 10 mM Tris-HCl, 100 mM NaCl, 1 mM EDTA, pH 7.5; 4 C, 10% native PAGE; 10 pmol Cy5-RNA (~2 uM) or 0.5 nmol unlabeled RNA. RNP: 20 mM Na phosphate, 500 mM NaCl, pH 6.6; conditions: protein: recombinant, tags: N-terminal His6, TEV-cleaved, label: 5'-Cy5
T3 sequence: T1 sequence with I93V, P96A

Snu13 = molecular target: T4, Snu13 (Saccharomyces cerevisiae, UniProt P39990 1-126); experiment: EMSA (ethidium bromide); ~100 uM RNA; EMSA: annealed in 10 mM Tris-HCl, 100 mM NaCl, 1 mM EDTA, pH 7.5; 4 C, 10% native PAGE; 10 pmol Cy5-RNA (~2 uM) or 0.5 nmol unlabeled RNA. RNP: 20 mM Na phosphate, 500 mM NaCl, pH 6.6; conditions: protein: recombinant; tags: N-terminal His6, TEV-cleaved; k-turn
T4 sequence: T1 sequence with I93V, V95R

L7Ae [5] = molecular target: T2, L7Ae; experiment: EMSA; affinity not improved over snR51-kl1; EMSA: annealed in 10 mM Tris-HCl, 100 mM NaCl, 1 mM EDTA, pH 7.5; 4 C, 10% native PAGE; 10 pmol Cy5-RNA (~2 uM) or 0.5 nmol unlabeled RNA. RNP: 20 mM Na phospha
Snu13 R95VP96A [6] = molecular target: T3, Snu13 R95VP96A; experiment: EMSA; better than wild type; EMSA: annealed in 10 mM Tris-HCl, 100 mM NaCl, 1 mM EDTA, pH 7.5; 4 C, 10% native PAGE; 10 pmol Cy5-RNA (~2 uM) or 0.5 nmol unlabeled RNA. RNP: 20 mM Na phosphate, 500 mM NaCl, pH 6.6; conditions: protein: recombinant; tags: N-terminal His6, TEV-cleaved; label: 5'-Cy5; k-turn
Snu13 V93IR95V [7] = molecular target: T1, Snu13 V93IR95V; experiment: as above; conditions: protein: recombinant; tags: N-terminal His6, TEV-cleaved; label: 5'-Cy5; k-turn
Snu13 R95VI98A = molecular target: T5, Snu13 R95VI98A (Saccharomyces cerevisiae, UniProt P39990 1-126, R95V;I98A); experiment: as above; conditions: protein: recombinant; tags: N-terminal His6, TEV-cleaved; label: 5'-Cy5; k-turn
T5 sequence: T1 sequence with I93V, I98A

Binder: UACUAAAUAGUUGAUGA (structured_RNA) [snR51-kl3]
- binding result (Snu13 V93IR95V [1]; k-loop): binds

Binder: UACGAAAUAGUUGAUGA (structured_RNA) [snR51-kl4]
- binding result (L7Ae [2]): binds

Binder: ACUGAAAUAGUUGUAGA (structured_RNA) [snR54-kl3]
- binding result (Snu13 V93IR95V [1]; k-loop): binds

Binder: ACUGACUGUGAUCAAACGAUCUUGUAGA (structured_RNA) [snR54-kl1]
- binding result (L7Ae [3]): no binding
- binding result (Snu13 R95VP96A [4]; non-canonical k-turn): binds
- binding result (Snu13 V93IR95V [1]; non-canonical k-turn): binds

Binder: UACUAGAUUGGUCUCUUUCAAGAAGGGGCUAAUUGAUGA (structured_RNA) [snR51-kl1]
- Kd (L7Ae [3]): < 141 nM

Binder: UACGAGAUUGGUCUCUUUCAAGAAGGGGCUAAUUGAUGA (structured_RNA) [snR51-kl2 unlabeled]
- binding result (Snu13): binds

Binder: UACGAGAUUGGUCUCUUUCAAGAAGGGGCUAAUUGAUGA (structured_RNA) [snR51-kl2]
- binding result (L7Ae [5]): binds
- binding result (Snu13 R95VP96A [6]): binds
- binding result (Snu13 V93IR95V [7]): binds
- binding result (Snu13 R95VI98A): binds

Binder: ACUGACUGUGAUCAAACGAUCUUGAAGA (structured_RNA) [snR54-kl2]
- binding result (Snu13 R95VP96A [4]): binds
- binding result (Snu13 V93IR95V [1]): binds
